Measurements: article PMC2790542

Tested on: O=C(O)/C=C\Cl
Test: purified protein
Conditions: active site

For “cis-3-chloroacrylic acid dehalogenase (cis-CaaD) (coryneform bacterium)”, which Km is on record?
Its Km is 200 ± 15 µM.

What about the kcat of the same substance?
The kcat was 5.9 ± 0.1 s⁻¹.

And the kcat/Km?
Its kcat/Km is 29000 M⁻¹ s⁻¹.
